# T1: RPN1 (UniProt P04843 24-607)
# T1 construct: Endogenous protein found in the co-IP by mass spectrometry; also called NP_002941.1
# T1 sequence (looked up): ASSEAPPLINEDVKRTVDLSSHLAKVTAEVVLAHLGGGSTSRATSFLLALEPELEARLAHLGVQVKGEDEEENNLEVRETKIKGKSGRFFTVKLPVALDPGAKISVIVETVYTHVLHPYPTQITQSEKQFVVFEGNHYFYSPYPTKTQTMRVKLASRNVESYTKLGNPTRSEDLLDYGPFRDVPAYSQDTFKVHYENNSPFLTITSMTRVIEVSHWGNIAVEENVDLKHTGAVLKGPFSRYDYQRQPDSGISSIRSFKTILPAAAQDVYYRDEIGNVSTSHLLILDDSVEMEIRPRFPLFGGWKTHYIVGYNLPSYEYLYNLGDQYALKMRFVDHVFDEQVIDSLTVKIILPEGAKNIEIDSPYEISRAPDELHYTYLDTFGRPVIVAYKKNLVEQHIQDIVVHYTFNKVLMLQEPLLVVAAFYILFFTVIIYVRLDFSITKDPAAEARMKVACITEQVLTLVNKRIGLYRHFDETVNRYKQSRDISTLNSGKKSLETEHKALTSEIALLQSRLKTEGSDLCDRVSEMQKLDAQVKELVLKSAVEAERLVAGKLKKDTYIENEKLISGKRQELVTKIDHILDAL
# T2: HNRNPF (UniProt P52597 2-415)
# T2 construct: Endogenous protein found in the co-IP by mass spectrometry; also called NP_001091676.1
# T2 sequence (looked up): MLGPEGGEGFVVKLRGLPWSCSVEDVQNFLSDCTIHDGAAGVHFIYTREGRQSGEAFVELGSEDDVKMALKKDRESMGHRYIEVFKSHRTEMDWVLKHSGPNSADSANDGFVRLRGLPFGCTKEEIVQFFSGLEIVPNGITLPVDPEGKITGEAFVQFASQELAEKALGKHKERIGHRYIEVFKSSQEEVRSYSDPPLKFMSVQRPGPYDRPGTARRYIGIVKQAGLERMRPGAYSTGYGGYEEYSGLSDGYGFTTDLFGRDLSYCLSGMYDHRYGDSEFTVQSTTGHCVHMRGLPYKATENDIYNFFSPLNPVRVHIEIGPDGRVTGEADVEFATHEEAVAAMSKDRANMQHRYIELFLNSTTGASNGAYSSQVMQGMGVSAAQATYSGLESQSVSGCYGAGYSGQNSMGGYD
# What was measured:
# C1orf68 = biological target: T3, C1orf68 (human, UniProt Q5T750 1-250); assay: co-IP, anti-FLAG, lysate of cells with C-FLAG B3GNT2; mass spectrometry
# T3 construct: also called NP_001019850.1
# T3 sequence (Q5T750 whole entry): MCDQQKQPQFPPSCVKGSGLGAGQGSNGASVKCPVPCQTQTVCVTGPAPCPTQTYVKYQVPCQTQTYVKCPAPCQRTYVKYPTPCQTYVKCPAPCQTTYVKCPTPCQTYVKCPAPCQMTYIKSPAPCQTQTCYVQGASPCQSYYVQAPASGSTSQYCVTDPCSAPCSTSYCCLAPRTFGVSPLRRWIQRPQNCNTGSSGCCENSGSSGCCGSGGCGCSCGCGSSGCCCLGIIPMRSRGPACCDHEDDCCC
# Description: (§1) Cells were plated in 10-cm cell culture dishes and grown to 60-80% confluency. For each condition, two biological replicates were harvested for co-IP. Cells were washed with PBS and 4 mL of lysis buffer (20 mM HEPES, 1% Triton X-100, 150 mM NaCl, 1 mM EDTA, and 10% glycerol) containing protease inhibitor cocktail was added. Cells were scraped and lysate was incubated at 4° C. under rotary agitation for 1 h. Lysate was centrifuged at 14,000×g for 10 min at 4° C. Supernatant was transferred to a new tube and an aliquot was taken as the input. […] For Western blots, 10 μg/mL Chicken Anti-FLAG (Aves labs ET-DY100) and IgY control (R&D Systems AB-101-C) antibodies were biotinylated (Thermo Fisher Scientific 90407) and added to the respective conditions. Lysates with antibodies were incubated at 4° C. under rotary agitation overnight. For each mL of lysate, 50 μL of Pierce Protein A/G Magnetic Beads (Mass spectrometry; Thermo Fisher Scientific 88803) or Pierce Streptavidin Magnetic Beads (Western blot; Thermo Fisher Scientific 88817) was washed twice with lysis buffer. Lysates with antibodies were added to the beads and incubated at 4° C. under rotary agitation for 4 h. Beads were washed with lysis buffer 3 times and resuspended in lysis buffer for storage.
# (§2) Magnetic beads were resuspended in 100 mM Tris pH 7.8, reduced, alkylated and digested with trypsin at 37° ° C. overnight. This solution was subjected to solid phase extraction to concentrate the peptides and remove unwanted reagents followed by injection onto a Shimadzu HPLC with fraction collector. Eight fractions were collected and after concentration were injected on a Waters NanoAcquity HPLC equipped with a self-packed Aeris 3 μm C18 analytical column 0.075 mm by 20 cm, (Phenomenex). Peptides were eluted using standard reverse-phase gradients. The effluent from the column was analyzed using a Thermo Orbitrap Elite mass spectrometer (nanospray configuration) operated in a data dependent manner for 54 minutes. The resulting fragmentation spectra were correlated against the known database using Proteome Discover 1.4 (Thermo Fisher Scientific).
# FAU = FAU (human, UniProt P62861 75-133); assay: as above
# Description: as §1, §2
# PRBP1 = biological target: T4, PRBP1 (human, UniProt P26599 1-557); assay: as above
# T4 construct: Label 'PRBP1' is probably a misprint of PTBP1; also called NP_002810.1 (+4)
# T4 sequence (P26599 whole entry): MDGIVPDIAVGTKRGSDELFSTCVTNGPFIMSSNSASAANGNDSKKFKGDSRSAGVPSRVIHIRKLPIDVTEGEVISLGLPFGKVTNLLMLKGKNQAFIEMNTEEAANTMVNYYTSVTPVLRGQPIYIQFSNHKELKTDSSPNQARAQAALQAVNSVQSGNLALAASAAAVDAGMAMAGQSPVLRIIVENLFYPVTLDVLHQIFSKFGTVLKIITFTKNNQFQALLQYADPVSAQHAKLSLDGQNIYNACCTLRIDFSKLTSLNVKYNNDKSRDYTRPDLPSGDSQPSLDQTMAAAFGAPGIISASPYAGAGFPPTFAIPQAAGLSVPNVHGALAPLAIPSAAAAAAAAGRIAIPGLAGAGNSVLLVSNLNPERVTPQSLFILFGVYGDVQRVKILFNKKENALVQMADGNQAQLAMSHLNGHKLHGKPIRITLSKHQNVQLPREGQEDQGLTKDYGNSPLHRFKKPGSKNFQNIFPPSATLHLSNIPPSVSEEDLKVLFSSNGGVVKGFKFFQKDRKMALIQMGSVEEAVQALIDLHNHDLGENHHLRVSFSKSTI
# Description: as §1, §2
# RPL10A = RPL10A (UniProt P62906 2-217); assay: co-IP with anti-FLAG, mass spectrometry; N-FLAG B3GNT2
# Description: as §1, §2
# RPLP2 = biological target: T5, RPLP2 (UniProt P05387 1-115); assay: as above
# T5 construct: Endogenous protein found in the co-IP by mass spectrometry; also called NP_000995.1
# T5 sequence (P05387 whole entry): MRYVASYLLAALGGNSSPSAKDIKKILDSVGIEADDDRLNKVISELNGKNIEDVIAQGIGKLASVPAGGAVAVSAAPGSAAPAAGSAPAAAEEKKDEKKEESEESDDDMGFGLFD
# Description: as §1, §2
# RPN1 = biological target: T1, RPN1; assay: as above
# Description: as §1, §2
# HNRNPA1 = biological target: T6, HNRNPA1 (UniProt P09651 2-372); assay: as above
# T6 construct: Endogenous protein found in the co-IP by mass spectrometry; also called NP_112420.1
# T6 sequence (P09651 2-372 limits assumed): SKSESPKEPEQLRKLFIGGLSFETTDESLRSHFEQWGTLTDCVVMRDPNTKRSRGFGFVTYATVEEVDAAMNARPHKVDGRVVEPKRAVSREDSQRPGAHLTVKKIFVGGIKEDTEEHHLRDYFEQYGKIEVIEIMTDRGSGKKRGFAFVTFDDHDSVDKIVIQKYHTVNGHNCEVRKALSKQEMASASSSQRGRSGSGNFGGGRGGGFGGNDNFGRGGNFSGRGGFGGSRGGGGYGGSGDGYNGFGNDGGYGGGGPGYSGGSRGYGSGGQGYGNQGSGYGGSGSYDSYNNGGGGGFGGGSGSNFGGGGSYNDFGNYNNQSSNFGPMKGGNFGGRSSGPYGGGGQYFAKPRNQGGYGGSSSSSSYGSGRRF
# Description: as §1, §2
# RPL36A = RPL36A (UniProt P83881 1-106); assay: as above
# Description: as §1, §2
# HNRNPF = biological target: T2, HNRNPF; assay: as above
# Description: as §1, §2
# YBX3 = biological target: T7, YBX3 (UniProt P16989 2-372, limits assumed); assay: as above
# T7 construct: Endogenous protein found in the co-IP by mass spectrometry; also called XP_016875611.1 (+1)
# T7 sequence (P16989 2-372 limits assumed): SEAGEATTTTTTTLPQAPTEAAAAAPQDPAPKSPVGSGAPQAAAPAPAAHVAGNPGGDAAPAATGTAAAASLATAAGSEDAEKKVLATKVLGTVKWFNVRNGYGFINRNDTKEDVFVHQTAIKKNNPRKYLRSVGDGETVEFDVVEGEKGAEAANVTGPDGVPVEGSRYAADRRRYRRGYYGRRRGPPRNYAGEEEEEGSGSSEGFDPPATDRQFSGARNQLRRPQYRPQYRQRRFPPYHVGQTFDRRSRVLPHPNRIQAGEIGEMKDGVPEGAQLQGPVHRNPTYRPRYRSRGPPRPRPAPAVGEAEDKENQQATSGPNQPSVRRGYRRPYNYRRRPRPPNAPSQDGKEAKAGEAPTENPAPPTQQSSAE
# Description: as §1, §2
binder,measurement,setting,value
"C-terminal FLAG tagged B3GNT2 (enzyme, human, UniProt Q9NY97 1-397, looked up, Overexpressed in cells and pulled down from the lysate with mouse anti-FLAG antibody; also called C-FLAG B3GNT2; C-term flag; not shown: C-terminal FLAG tag) MSVGRRRIKLLGILMMANVFIYFIMEVSKSSSQEKNGKGEVIIPKEKFWKISTPPEAYWNREQEKLNRQYNPILSMLTNQTGEAGRLSNISHLNYCEPDLRVTSVVTGFNNLPDRFKDFLLYLRCRNYSLLIDQPDKCAKKPFLLLAIKSLTPHFARRQAIRESWGQESNAGNQTVVRVFLLGQTPPEDNHPDLSDMLKFESEKHQDILMWNYRDTFFNLSLKEVLFLRWVSTSCPDTEFVFKGDDDVFVNTHHILNYLNSLSKTKAKDLFIGDVIHNAGPHRDKKLKYYIPEVVYSGLYPPYAGGGGFLYSGHLALRLYHITDQVHLYPIDDVYTGMCLQKLGLVPEKHKGFRTFDIEEKNKNNICSYVDLMLVHSRKPQEMIDIWSQLQSAHLKC",co-IP mass spectrometry count,C1orf68,2
same,co-IP mass spectrometry count,FAU,7
same,co-IP mass spectrometry count,PRBP1,9
"N-terminal FLAG tagged B3GNT2 (enzyme, human, UniProt Q9NY97 1-397, looked up, FLAG-tagged ORF overexpressed in cells; bait of the anti-FLAG co-IP; also called N-FLAG B3GNT2; N-term FLAG; not shown: FLAG tag at the N-terminus) MSVGRRRIKLLGILMMANVFIYFIMEVSKSSSQEKNGKGEVIIPKEKFWKISTPPEAYWNREQEKLNRQYNPILSMLTNQTGEAGRLSNISHLNYCEPDLRVTSVVTGFNNLPDRFKDFLLYLRCRNYSLLIDQPDKCAKKPFLLLAIKSLTPHFARRQAIRESWGQESNAGNQTVVRVFLLGQTPPEDNHPDLSDMLKFESEKHQDILMWNYRDTFFNLSLKEVLFLRWVSTSCPDTEFVFKGDDDVFVNTHHILNYLNSLSKTKAKDLFIGDVIHNAGPHRDKKLKYYIPEVVYSGLYPPYAGGGGFLYSGHLALRLYHITDQVHLYPIDDVYTGMCLQKLGLVPEKHKGFRTFDIEEKNKNNICSYVDLMLVHSRKPQEMIDIWSQLQSAHLKC",co-IP mass spectrometry count,RPL10A,6
same,co-IP mass spectrometry count,RPLP2,6
same,co-IP mass spectrometry count,RPN1,0
same,co-IP mass spectrometry count,HNRNPA1,7
same,co-IP mass spectrometry count,RPL36A,3
same,co-IP mass spectrometry count,HNRNPF,0
same,co-IP mass spectrometry count,YBX3,0

# — patent US20240261333A1 (published 2024)
